In this assay the target is T1, rhBMP-2 (recombinant human bone morphogenetic protein-2) (human, UniProt P12643 283-396).
T1 construct: Control protein on the Western blot; Analysed on reducing SDS-PAGE
Briefly: co-immunoprecipitation.

T1 sequence (P12643 283-396 limits assumed): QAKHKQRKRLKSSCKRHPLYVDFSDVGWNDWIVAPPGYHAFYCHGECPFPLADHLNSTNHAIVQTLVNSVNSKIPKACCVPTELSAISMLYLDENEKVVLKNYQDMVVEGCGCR

B1: retrovirally produced BMP-3 (from pBABE-BMP3, full-length human BMP-3 cDNA, secreted by infected W-20-17 cells) (ligand)
chain: QWIEPRNCARRYLKVDFADIGWSEWIISPKSFDAYYCSGACQFPMPKSLKPSNHATIQSIVRAVGVVPGIPEPCCVPEKMSSLSILFFDENKNVVLKVYPNMTVESCACR
notes: Expressed from the full-length human cDNA; The secreted, processed form has a most abundant monomer of about 28 kD, with glycosylated or alternatively processed forms; also called vBMP3; BMP-3 CM
Turning to B1, the binding result was “no binding”.

For the origin of these results see US20060252724A1 (Pfizer, published 2006).
